Measured values as given in the supplement of paper PMC10567573.
± gives the standard deviation.

Assay: protein stability index of a GFP-peptide fusion (GPS, HEK-293T) (PSI 1-6); higher = more stable
Details: c terminus: a fixed tail appended
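Also: 24-mer peptide tiles fused after GFP, lentivirally expressed, FACS-sorted into six equal bins by GFP/DsRed ratio, decoded by Illumina sequencing, PSI is the read-weighted mean bin number.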

| Sequence | protein stability index (treatment: DMSO) | protein stability index (treatment: MLN4924 1 uM, 8 h) |
| --- | --- | --- |
| GEITQHNVTELLRDVAAWGRARAT [DNAAF3] | 3.11 ± 0.35 | 3.53 ± 0.5 |
| GELSPEQPSFEPTKNKELTDEFRE [FADS1] | 5.52 ± 0.33 | 5.38 ± 0.18 |
| GETYCEEHGEKIYFFCENDAEFLC [TRIM15] | 3.22 ± 0.26 | 3.33 ± 0.44 |
| GFGDEDTGLELIAEESNPPLQDFP [MIA2] | 5.4 ± 0.34 | 5.23 ± 0.069 |
| GFWQLPPPATQNTFGNSTLALGPG [PLAGL1] | 3.17 ± 0.15 | 3.29 ± 0.35 |
| GGGFAGGDGLLVGSEKVTMQNLND [KRT16] | 4.72 ± 0.34 | 4.73 ± 0.1 |
| GGLQKMVALLNKTNVKFLAITTDC [CTNNB1] | 2.73 ± 0.61 | 2.45 ± 0.46 |
| GGMNHSAFPQTPFKTGNSTATCTT [KCNA3] | 4.27 ± 0.24 | 4.4 ± 0.4 |
| GGPGGRGPWSCENFNPLLVAGGVA [CEND1] | 2.82 ± 0.23 | 2.72 ± 0.18 |
| GGPSSPPSDPPAMSPGPLDALSSP [C2CD2L] | 5.23 ± 0.26 | 5.27 ± 0.14 |
| GGYFKAHIKFPIDYPYSPPTFRFL [UBE2R2] | 2.61 ± 0.96 | 2.71 ± 0.52 |
| GHPFFEGVDWEHIRERPAAIPIEI [STK38L] | 2.46 ± 0.39 | 2.84 ± 0.38 |
| GKAFSQNSGLINHQRIHTGEKPYE [ZNF24] | 3.86 ± 0.19 | 4.33 ± 0.42 |
| GKHPKDKTEDENKQSFLDGGKGHH [TOR1AIP2] | 5.4 ± 0.34 | 5.55 ± 0.22 |
| GKVEAQHILASAPTDRNLCHFQAL [PYCR3] | 2.7 ± 0.25 | 3.04 ± 0.31 |
| GLKPGPEDGPGKEEAPELDEAELD [SERTAD1] | 5.67 ± 0.34 | 5.83 ± 0.064 |
| GLLICLPREQAARFCSEIKSSKYG [SEPHS2] | 2.04 ± 0.28 | 2.17 ± 0.55 |
| GLPLAASMQEDEQSGRDLQQYQSQ [SEC22B] | 5.34 ± 0.24 | 5.43 ± 0.3 |
| GLRLCRPKAKAKAKAKAKDQTKAQ [RPL29] | 3.91 ± 0.23 | 4.16 ± 0.34 |
| GNAHYQRADFVLAANSYDLAIKAI [FKBP8] | 2.5 ± 0.079 | 2.43 ± 0.33 |
| GNKSDLKQLRQVTKEEGLALAREF [RIT1] | 4.31 ± 0.25 | 4.26 ± 0.12 |
| GPARSGFRLETLAGLRSRRLKQPK [MIR22HG] | 3.87 ± 0.24 | 4.14 ± 0.13 |

| Sequence | protein stability index (treatment: DMSO) | protein stability index (treatment: MLN4924 1 uM, 8 h) |
| --- | --- | --- |
| GPAVVCGTPTSHVYMFKNGSGDSG [LYSMD4] | 3.7 ± 0.12 | 3.65 ± 0.33 |
| GPGDEVARGIAGEKFDIVKKWGIN [ARFIP2] | 4 ± 0.17 | 4.2 ± 0.046 |
| GQILELPWKEETFLVLQSLLERQV [FANCE] | 1.9 ± 0.35 | 2.1 ± 0.34 |
| GQREPGSLSRNNSFRRNVGRVLLA [FBXO34] | 3.11 ± 0.26 | 3.46 ± 0.21 |
| GQRIRRGSIGVWHYICPRLGGIGF [SLC6A17] | 2.23 ± 0.27 | 2.42 ± 0.2 |
| GRAVEHAMFLGDAAAHWYGGAEMR [MYORG] | 2.87 ± 0.34 | 3.14 ± 0.27 |
| GRDDLESFQLEISGFLKEMACPYS [FAM98B] | 2.29 ± 0.3 | 2.67 ± 0.75 |
| GRNFILFIIFGTMEEMQNKAVVFF [HACD3] | 2.94 ± 1.4 | 2.36 ± 1.2 |
| GRQPALRPHVHKQTEKTTRVRTVL [ISL2] | 3.66 ± 0.1 | 3.88 ± 0.17 |
| GSAVEVQTYQPPWKALSEFALQSD [ISL2] | 3.61 ± 0.4 | 3.73 ± 0.39 |
| GSLDIMKMLLMYCAKMEKDGYGMT [FEM1C] | 3.22 ± 0.46 | 2.58 ± 0.7 |
| GSLILPPGPGGTMKRHSSRDAAGK [FCHO1] | 4.68 ± 0.2 | 4.56 ± 0.2 |
| GSQDGHFVLSCSYDGLDCQARQFR [SCNN1D] | 2.52 ± 0.12 | 2.71 ± 0.29 |
| GSRCLKTFEVPEENTAETITRVLY [ZBED1] | 2.66 ± 0.47 | 2.64 ± 0.18 |
| GSSDHSVIMWDIGGRKGTAIELQG [WDFY2] | 2.84 ± 0.43 | 2.83 ± 0.2 |
| GSSSLGFTSSPSPFSSSSPENVED [FCHO1] | 5.38 ± 0.2 | 5.29 ± 0.19 |
| GTCALWDVESGQLLQSFHGHGADV [GNB5] | 2.75 ± 0.28 | 2.99 ± 0.51 |
| GTPGTPSYPRTPHTPGTPKSAILV [MAP2] | 3.1 ± 0.12 | 3.24 ± 0.35 |
| GTPGYLSPEVLRKDPYGKPVDLWA [CAMK2A] | 3.29 ± 0.39 | 3.16 ± 0.29 |
| GTVVALLNVHDLDSEQNGQVTCSI [PCDHGA10] | 2.23 ± 0.34 | 2.58 ± 0.24 |
| GVEPSPSPIKPGDIKRGIPNYEFK [UFD1] | 4.25 ± 0.24 | 4.24 ± 0.24 |
| GVLEAPDTQVNPVGSVSVDCGPSR [FBXO34] | 5.03 ± 0.31 | 4.89 ± 0.6 |

| Sequence | protein stability index (treatment: DMSO) | protein stability index (treatment: MLN4924 1 uM, 8 h) |
| --- | --- | --- |
| GVLTRKTHADMDGKRTPRGRRGWK [PSD2] | 4.47 ± 0.29 | 4.53 ± 0.29 |
| GVQKMNSKTVTSTMLGVFREDPKT [GCH1] | 4.43 ± 0.45 | 4.05 ± 0.33 |
| GWCSGDAISSVERYDPQTNEWRMV [KLHL20] | 2.84 ± 0.24 | 2.95 ± 0.34 |
| HEEFFPAFQAFTNDLLEILEIDDL [CEP70] | 3.48 ± 0.21 | 3.43 ± 0.37 |
| HELLLGSLQQQHQADLELIESAHR [FBF1] | 4.66 ± 0.24 | 4.35 ± 0.21 |
| HGHYSMHCLHSAGHSQPDGAYSSA [DLX1] | 3.48 ± 0.27 | 3.47 ± 0.23 |
| HGPFSGFPGPQEHTQVLPDVRLLP [DYRK1B] | 3.57 ± 0.099 | 3.63 ± 0.21 |
| HHHHGRDFLLRAASFDVCESVDEA [RHOBTB2] | 4.04 ± 0.38 | 4.25 ± 0.27 |
| HHLFPTMPRHNYHKVAPLVQSLCA [FADS1] | 2.4 ± 0.32 | 2.51 ± 0.17 |
| HHRYDDLVRTLYKVQNECPGITRV [CPN1] | 2.69 ± 0.34 | 2.67 ± 0.098 |
| HILKKYYGNGMRKSPEMPVILEVS [RTP4] | 1.99 ± 0.51 | 2.2 ± 0.37 |
| HKQDGKAGLFSQEQYERNKSSSSS [TMEM40] | 5.3 ± 0.35 | 5.31 ± 0.15 |
| HKRRRRKQKVSRIERSSSFSSITD [DVL3] | 4.28 ± 0.096 | 4.55 ± 0.092 |
| HLELTRKLQDLIKDVLRYGEEQLK [FCHO1] | 2.95 ± 0.52 | 2.71 ± 0.69 |
| HLTSVTSESEQEFLYKTAGGLIYW [CD207] | 2.33 ± 0.28 | 2.63 ± 0.33 |
| HPFFFALGKILSVELGKQKKKYMP [FADS1] |  | 1.89 ± 0.5 |
| HPGRGLAGRWLWGAQPCLLLPIVP [ADAMTS4] | 2.08 ± 0.7 | 1.92 ± 0.31 |
| HPLHPRHRKAVHLRTRGRTRGWVQ [C6orf223] | 3.15 ± 0.23 | 3.05 ± 0.49 |
| HQKLEREARICRLLKHPNIVRLHD [CAMK2D] | 2.51 ± 0.22 | 2.9 ± 0.46 |
| HQRKHAGEKPFECRQRLIFEQTPA [ZNF8] | 3.65 ± 0.2 | 3.64 ± 0.16 |
| HQVPTTAGNKAALLDQIREGAQLK [WASL] | 4.95 ± 0.18 | 4.86 ± 0.33 |
